Measured values reported in patent US20070224212A1 (Merck Sharp & Dohme, published 2007).
Numbered stars: 1 amine (or outer) side, 2 acyl side, 3 side chain; on linkers, the order of the positions; unused ones are H or OH. Bridge positions count the residues as written; N and C are the ends. Square brackets hold non-standard residues; d marks the D form. Ends that are not written are not given here. I, II: the chains in the order shown. * marks the point of attachment. Cys(Acm) = Cys protected with acetamidomethyl (Acm), CC(=O)NCSC[C@H](N[*:1])C(=O)[*:2]; Biotin = O=C1N[C@H]2[C@H](CS[C@H]2CCCCC(=O)*)N1; Ttds = O=C(CCC(=O)[*:2])NCCCOCCOCCOCCCN[*:1]

Experiments:
Assay in all cases: cell-based or functional assay
HIV-1 gp41 (strain HXB2) [1] = biological target: T1, HIV-1 gp41 (strain HXB2) (HIV-1 strain HXB2, UniProt P04578 512-856)
HIV-1 gp41 (strain BaL) = HIV-1 gp41 (strain BaL) (HIV-1 strain BaL)
gp41 of SHIV-89.6P = gp41 of SHIV-89.6P (SHIV-89.6P)
HIV-1 gp41 (strain 89.6) = HIV-1 gp41 (strain 89.6) (HIV-1 strain 89.6)
HIV-1 gp41 (strain MN-1) = HIV-1 gp41 (strain MN-1) (HIV-1 strain MN-1, UniProt P05877 514-856)
HIV-1 gp41 (strain HXB2) [2] = biological target: T1, HIV-1 gp41 (strain HXB2); remark: listed apart in the source
[3] = biological target: HIV-1 gp41 (strain NL4-3) (HIV-1 strain NL4-3)
HIV-1 gp41 (strain HXB2) [4] = biological target: T1, HIV-1 gp41 (strain HXB2); remark: listed apart in the source

Sequence of HIV-1 gp41 (strain MN-1) (P05877 514-856 limits assumed): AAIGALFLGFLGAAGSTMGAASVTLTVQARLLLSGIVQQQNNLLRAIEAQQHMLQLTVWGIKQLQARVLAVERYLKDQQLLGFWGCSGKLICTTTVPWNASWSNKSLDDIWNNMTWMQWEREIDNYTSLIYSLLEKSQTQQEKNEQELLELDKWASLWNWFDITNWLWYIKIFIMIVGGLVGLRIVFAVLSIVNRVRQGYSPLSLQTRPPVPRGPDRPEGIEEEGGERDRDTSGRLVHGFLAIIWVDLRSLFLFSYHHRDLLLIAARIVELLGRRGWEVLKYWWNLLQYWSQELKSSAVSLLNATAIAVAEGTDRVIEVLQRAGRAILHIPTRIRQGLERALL

B1: (CCS17N17)3 (peptide)
peptide chain of the covalent trimer: Ac-CCGGIEKKIEAIEKKIEAIEKLLQLTVWGIKQLQARIL-NH2
modifications: not fully specified (bridges); also: homotrimer of three chains, cysteine pairing not given here
HIV-1 gp41 (strain HXB2) [1]
  IC50, anti-viral activity against HIV-HXB2: 0.33 nM

B2: ac-C(Acm)(thioE10N17)3 (peptide)
peptide 1: Ac-[Cys(Acm)][Ttds]CCIEEKIEEIEELLQLTVWGIKQLQARIL
peptide 2: Ac-GGGIEEKIEEIEELLQLTVWGIKQLQARIL
modifications: bridge I:N-I:4; thioether (positions not given here); not fully specified (bridges); also: trimer, copy numbers of chains not given here
HIV-1 gp41 (strain HXB2) [1]
  IC50, anti-viral activity against HIV-HXB2: 150 nM

B3: (CCIZN17)3 (peptide)
peptide: Ac-CCGGIKKEIEAIKKEQEAIKKKIEAIEKLLQLTVWGIKQLQARIL-NH2
modifications: not fully specified (bridges); also: homotrimer of three chains, cysteine pairing not given here
HIV-1 gp41 (strain BaL)
  IC50, single-cycle HIV infectivity assay: 0.34 nM
gp41 of SHIV-89.6P
  IC50, single-cycle HIV infectivity assay: 6.9 nM
HIV-1 gp41 (strain 89.6)
  IC50, single-cycle HIV infectivity assay: 8 nM
HIV-1 gp41 (strain MN-1)
  IC50, single-cycle HIV infectivity assay: 0.9 nM
HIV-1 gp41 (strain HXB2) [2]
  IC50, single-cycle HIV infectivity assay: 0.04 nM
[3]
  IC50, single-cycle HIV infectivity assay: 0.1 nM
HIV-1 gp41 (strain HXB2) [4]
  IC50, anti-viral assay against HIV-1 HXB2 (FIG. 13): 0.132 nM

B4: NH2-C(Fm)(thioIZN17)3 (peptide)
peptide 1: CCCGGIKKEIEAIKKEQEAIKKKIEAIEKLLQLTVWGIKQLQARIL
peptide 2: GGGIKKEIEAIKKEQEAIKKKIEAIEKLLQLTVWGIKQLQARIL
modifications: N-terminal acetyl (from bromoacetyl) joined by a thioether bond to a Cys of the CC chain; free N-terminal amine; Cys1 thiol protected with Fm; Ttds linker between Cys1 and Cys2; Cys2 and Cys3 each joined by a thioether bond to the N-terminal acetyl of a GGGIZN17 chain
HIV-1 gp41 (strain HXB2) [4]
  IC50, single cell infectivity assay, HIV-1 HXB2: 1.1 nM

B5: ac-C(thioIZN17)3 (peptide)
peptide 1: B4 peptide 1
peptide 2: B4 peptide 2
modifications: N-terminal acetyl (from bromoacetyl) joined by a thioether bond to a Cys of the CC chain; N-terminal acetyl; Cys1 free thiol; Ttds linker between Cys1 and Cys2; Cys2 and Cys3 each joined by a thioether bond to the N-terminal acetyl of a GGGIZN17 chain
HIV-1 gp41 (strain HXB2) [4]
  IC50, anti-viral activity assay, HIV-HXB2: 0.24 nM

B6: ac-C(Acm)(thioIZN17)3 (peptide)
peptide 1: B4 peptide 1
peptide 2: B4 peptide 2
modifications: N-terminal acetyl (from bromoacetyl) joined by a thioether bond to a Cys of the CC chain; N-terminal acetyl; Cys1 thiol protected with acetamidomethyl (Acm); Ttds linker between Cys1 and Cys2; Cys2 and Cys3 each joined by a thioether bond to the N-terminal acetyl of a GGGIZN17 chain
HIV-1 gp41 (strain HXB2) [1]
  IC50, anti-viral activity against HIV-HXB2: 0.24 nM

B7: Biotin-IZN23 (peptide)
peptide: Biotin-GGIKKEIEAIKKEQEAIKKKIEAIEKEIEAQQHLLQLTVWGIKQLQARIL
HIV-1 gp41 (strain HXB2) [2]
  IC50, single-cycle HIV infectivity assay: 2.17 nM

B8: IZN17Ala4 (peptide)
peptide: Ac-IKKEIEAIKKEQEAIKKKIEAIEKLLQLTVWGIKALAAAIA-NH2
HIV-1 gp41 (strain HXB2) [1]
  IC50, anti-viral activity against HIV-HXB2: 25.3 nM
HIV-1 gp41 (strain HXB2) [4]
  IC50, single-cycle infectivity assay, HIV-1 HXB2 (FIG. 12A): 25 nM

B9: (CCIZN17Ala4)3 (peptide)
peptide: Ac-CCGGIKKEIEAIKKEQEAIKKKIEAIEKLLQLTVWGIKALAAAIA-NH2
modifications: not fully specified (bridges); also: homotrimer of three chains, cysteine pairing not given here
HIV-1 gp41 (strain HXB2) [1]
  IC50, anti-viral activity against HIV-HXB2: 47 nM

B10: (CCI10N17)3 (peptide)
peptide: Ac-CCGGIKKKIEAIEKLLQLTVWGIKQLQARIL-NH2
modifications: not fully specified (bridges); also: homotrimer of three chains, cysteine pairing not given here
HIV-1 gp41 (strain HXB2) [4]
  IC50, anti-viral assay against HIV-1 HXB2 (FIG. 13): 24 nM
  fold change of IC50 against (CCIZN17)3, anti-viral assay against HIV-1 HXB2 (FIG. 13): ~150 fold
  fold change of IC50 against IZN17, anti-viral assay against HIV-1 HXB2 (FIG. 13): ~10 fold

B11: (Biotin-CCIZN23)3 (peptide)
peptide: Biotin-GCCGGIKKEIEAIKKEQEAIKKKIEAIEKEIEAQQHLLQLTVWGIKQLQARIL
modifications: not fully specified (bridges); also: covalent homotrimer via three interchain disulfides
HIV-1 gp41 (strain HXB2) [2]
  IC50, single-cycle HIV infectivity assay: 0.316 nM

B12: (I10N17CC)3 (peptide)
peptide: IKKKIEAIEKLLQLTVWGIKQLQARILGGCC
modifications: not fully specified (bridges); also: homotrimer of three chains, cysteine pairing not given here
HIV-1 gp41 (strain HXB2) [1]
  IC50, anti-viral activity against HIV-HXB2: 77.6 nM

B13: IZN17 (peptide)
peptide: Ac-IKKEIEAIKKEQEAIKKKIEAIEKLLQLTVWGIKQLQARIL-NH2
modifications: also: non-covalent trimeric coiled-coil
HIV-1 gp41 (strain BaL)
  IC50, single-cycle HIV infectivity assay: 3.2 nM
HIV-1 gp41 (strain HXB2) [2]
  IC50, single-cycle HIV infectivity assay: 1.7 nM
HIV-1 gp41 (strain HXB2) [4]
  IC50, anti-viral assay against HIV-1 HXB2 (FIG. 13): 1.68 nM
  IC50, single-cycle infectivity assay, HIV-1 HXB2: 0.2 nM

B14: ac-C(Acm)(thioS17N17)3 (peptide)
peptide 1: CCCGGIEKKIEAIEKKIEAIEKLLQLTVWGIKQLQARIL
peptide 2: GGGIEKKIEAIEKKIEAIEKLLQLTVWGIKQLQARIL
modifications: N-terminal acetyl (from bromoacetyl) joined by a thioether bond to a Cys of the CC chain; N-terminal acetyl; Cys1 thiol protected with Acm; Ttds linker between Cys1 and Cys2; Cys2 and Cys3 each joined by a thioether bond to the N-terminal acetyl of a GGGS17N17 chain
HIV-1 gp41 (strain HXB2) [4]
  IC50, single cell infectivity assay, HIV-1 HXB2: 0.27 nM

B15: (CCIZN13)3 (peptide)
peptide: Ac-CCGGIKKEIEAIKKEQEAIKKKIEAIEKLLQLTVWGIKQLQ
modifications: not fully specified (bridges); also: homotrimer of three chains, cysteine pairing not given here
HIV-1 gp41 (strain HXB2) [4]
  IC50, antiviral activity against HIV HXB2 (FIG. 13): 85.3 nM
